“And” between values parts separate entries of the source, which are not always exact repeats. Equal entries are not always repeated.
What was measured:
[1] = target: FliD lacking the C-terminal coiled-coil domain (FliD_(1–405)) from the P. aeruginosa PAO1 strain (Pseudomonas aeruginosa PAO1) (UniProt Q9K3C5); assay: cross-linking; about 0.4 mg/mL protein, 20 mM EDC and 20 mM NHS, various time points; silver-stained SDS-PAGE
[2] = target: FliD lacking the N-terminal coiled-coil domain (FliD_(78–474)) from the P. aeruginosa PAO1 strain (Pseudomonas aeruginosa PAO1) (UniProt Q9K3C5); assay: as above
[3] = target: FliD_(1–474(I167C/D253C)) produced by Pseudomonas (complementation strain ΔfliD/fliD_(1–474(I167C/D253C))) (Pseudomonas aeruginosa PAO1) (UniProt Q9K3C5); assay: Western blot after non-reducing SDS-PAGE; flagella sheared off live bacteria, supernatant concentrated; detected with anti-FliD scFv-Fc SH1579-B7
[4] = target: FliD_(78–405) from the P. aeruginosa PAO1 strain, made as a GST fusion and cleaved (Pseudomonas aeruginosa PAO1) (UniProt Q9K3C5); assay: cross-linking; about 0.4 mg/mL protein, 20 mM EDC and 20 mM NHS, various time points; silver-stained SDS-PAGE
[5] = target: FliD_(78–405) from the P. aeruginosa PAO1 strain, made as a GST fusion and cleaved (Pseudomonas aeruginosa PAO1) (UniProt Q9K3C5); assay: AUC; sedimentation velocity, 20°C, 20 mM sodium citrate, 80 mM NaCl, pH 5.0; 325 μM FliD78–405, 124 μM FliD78–273, 168 μM FliD1–474
[6] = target: FliD_(78–405) from the P. aeruginosa PAO1 strain, made as a GST fusion and cleaved (Pseudomonas aeruginosa PAO1) (UniProt Q9K3C5); assay: AUC; sedimentation velocity, 20°C, 30 mM Tris, 80 mM NaCl, pH 8.0; 295 μM FliD78–405, 124 μM FliD78–273, 168 μM FliD1–474
[7] = target: FliD_(78–405) from the P. aeruginosa PAO1 strain, made as a GST fusion and cleaved (Pseudomonas aeruginosa PAO1) (UniProt Q9K3C5); assay: negative stain EM with class averaging; 2% uranyl acetate, about 3500 particles, class averages in EMAN2
[8] = target: FliD_(78–405) from the P. aeruginosa PAO1 strain, made as a GST fusion and cleaved (Pseudomonas aeruginosa PAO1) (UniProt Q9K3C5); assay: SAXS; 30 mM Tris pH 8.0, 80 mM NaCl; three concentrations of each protein; envelopes by DAMMIF with superimposed crystal structures
[9] = target: FliD_(78–405) from the P. aeruginosa PAO1 strain, with N-terminal His6-tag (crystallized construct) (Pseudomonas aeruginosa PAO1) (UniProt Q9K3C5); assay: crystal structure; His6-FliD78–405 crystals grown in 0.8 M NaK Tartrate, 0.1 M Hepes pH 7.5; 2.2 Å; P6 space group
[10] = target: full-length FliD_(1–474) from the P. aeruginosa PAO1 strain (Pseudomonas aeruginosa PAO1) (UniProt Q9K3C5); assay: cross-linking; about 0.4 mg/mL protein, 20 mM EDC and 20 mM NHS, various time points; silver-stained SDS-PAGE
[11] = target: full-length FliD_(1–474) from the P. aeruginosa PAO1 strain (Pseudomonas aeruginosa PAO1) (UniProt Q9K3C5); assay: AUC; sedimentation velocity, 20°C, 20 mM sodium citrate, 80 mM NaCl, pH 5.0; 325 μM FliD78–405, 124 μM FliD78–273, 168 μM FliD1–474
[12] = target: full-length FliD_(1–474) from the P. aeruginosa PAO1 strain (Pseudomonas aeruginosa PAO1) (UniProt Q9K3C5); assay: AUC; sedimentation velocity, 20°C, 30 mM Tris, 80 mM NaCl, pH 8.0; 295 μM FliD78–405, 124 μM FliD78–273, 168 μM FliD1–474
[13] = target: full-length FliD_(1–474) from the P. aeruginosa PAO1 strain (Pseudomonas aeruginosa PAO1) (UniProt Q9K3C5); assay: AUC; sedimentation velocity, 4 μM FliD1–474 in 30 mM Tris, 80 mM NaCl, pH 8.0
[14] = target: head domain-only FliD (FliD_(78–273)) from the P. aeruginosa PAO1 strain (Pseudomonas aeruginosa PAO1) (UniProt Q9K3C5); assay: cross-linking; about 0.4 mg/mL protein, 20 mM EDC and 20 mM NHS, various time points; silver-stained SDS-PAGE
[15] = target: head domain-only FliD (FliD_(78–273)) from the P. aeruginosa PAO1 strain (Pseudomonas aeruginosa PAO1) (UniProt Q9K3C5); assay: AUC; sedimentation velocity, 20°C, 20 mM sodium citrate, 80 mM NaCl, pH 5.0; 325 μM FliD78–405, 124 μM FliD78–273, 168 μM FliD1–474
[16] = target: head domain-only FliD (FliD_(78–273)) from the P. aeruginosa PAO1 strain (Pseudomonas aeruginosa PAO1) (UniProt Q9K3C5); assay: SAXS; 30 mM Tris pH 8.0, 80 mM NaCl; three concentrations of each protein; envelopes by DAMMIF with superimposed crystal structures
[17] = target: stable hexameric full-length FliD mutant FliD_(1–474(I167C/D253C)), purified recombinant protein (Pseudomonas aeruginosa PAO1) (UniProt Q9K3C5); assay: SDS-PAGE under non-reducing conditions; purified FliD1–474(I167C/D253C), reducing against non-reducing conditions
[18] = target: stable hexameric full-length FliD mutant FliD_(1–474(I167C/D253C)), purified recombinant protein (Pseudomonas aeruginosa PAO1) (UniProt Q9K3C5); assay: SAXS; 30 mM Tris pH 8.0, 80 mM NaCl; three concentrations of each protein; envelopes by DAMMIF with superimposed crystal structures

“FliD lacking the C-terminal coiled-coil domain (FliD_(1–405)) from the P. aeruginosa PAO1 strain (from UniProt Q9K3C5 1-405) (domain or fragment)” gave a stoichiometry N [1] of 2.

In the case of “FliD lacking the N-terminal coiled-coil domain (FliD_(78–474)) from the P. aeruginosa PAO1 strain (from UniProt Q9K3C5 78-474) (domain or fragment)”, the stoichiometry N [2] is reported as 2.

Work on “FliD_(1–474(I167C/D253C)) produced by Pseudomonas (complementation strain ΔfliD/fliD_(1–474(I167C/D253C))) (from UniProt Q9K3C5 1-474) (natural protein)” yielded a stoichiometry N [3] of 6.

Work on “FliD_(78–405) from the P. aeruginosa PAO1 strain, made as a GST fusion and cleaved (from UniProt Q9K3C5 78-405) (domain or fragment)” yielded a stoichiometry N [4] of less than 12, a stoichiometry N [5] of 12 and a stoichiometry N [6] of 12. The stoichiometry N [7] was 6 and the stoichiometry N [8] was 12.

In the case of “FliD_(78–405) from the P. aeruginosa PAO1 strain, with N-terminal His6-tag (crystallized construct) (from UniProt Q9K3C5 78-405) (domain or fragment)”, the stoichiometry N [9] is reported as 6 and 12.

For “full-length FliD_(1–474) from the P. aeruginosa PAO1 strain (from UniProt Q9K3C5 1-474) (natural protein)”, the stoichiometry N [10] was less than 6, the stoichiometry N [11] was 4 and 6 and the stoichiometry N [12] was 4 and 6. For the same substance, the stoichiometry N [13] was 2.

In the case of “head domain-only FliD (FliD_(78–273)) from the P. aeruginosa PAO1 strain (from UniProt Q9K3C5 78-273) (domain or fragment)”, the stoichiometry N [14] is reported as 2, the stoichiometry N [15] is reported as 2 and the stoichiometry N [16] is reported as 2.

With “stable hexameric full-length FliD mutant FliD_(1–474(I167C/D253C)), purified recombinant protein (from UniProt Q9K3C5 1-474) (natural protein)” the stoichiometry N [17] was 6 and the stoichiometry N [18] was 6.

Reference: article PMC5072837
